# Measurements taken from US20190046659A1.
# Target: human GPC3 on GPC3-positive cells (HepG2, Huh-7, SK-Hep-1 GPC3) (human) (UniProt P51654)
# Assay: cell-based or functional assay
Substance,"killing rate of CAR T cells on Huh-7 cells, effector target ratio 1:3","killing rate of CAR T cells on Huh-7 cells, effector target ratio 1:1"
chimeric antigen receptor GC33-28BBZ (GC33 scFv-CD28a-CD28b-CD137-CD3 zeta) on T cells,23%,–
chimeric antigen receptor GC33-28Z (GC33 scFv-CD28a-CD28b-CD3 zeta) on T cells,6%,22%
